The nanobody polyreactivity screen of Harvey et al. (2022)

experiment: yeast display, Sf9 membrane polyspecificity reagent, FACS + sequencing; frameworks hold sequencing errors
Summary of the method: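 Genes from sorted yeast were amplified by colony PCR, read by MiSeq 2 × 250 sequencing and filtered on CDR length. These cells carried a synthetic nanobody library in Saccharomyces cerevisiae BJ5465 and were sorted by FACS into low and high (top ~1%) gates on anti-HA and streptavidin fluorescence. Polyreactivity is labelled according to the gate of origin.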

Sequence | polyreactivity (PSR sort gate)
QVQLLESGGGLVQAGGSLRLSCAASGFTFTYYAMGWYRQAPGKERELVAAISRRGGSTYYADSVKGRFTISRDNAKNTVYLQMNSLKPEDTAVYYCARDYNSAVGMVYWGQGTQVTVSS | high polyreactivity
QVQLLESGGGLVQAGGSLRLSCAASGITFSRNAMGWYRQAPGKERELVATITSGGSTNYADSVKGRFTITRDNAMNTVYLQMISLKPEDTAVYYCYAVWNTFISGRSYEYWGQGTQVTVSS | low polyreactivity
QVQLLESGGGLVQAGGSLRLSCAASGLTICYYAMGWYRQAPGKEREYVAAITSRGGDTYYADSVKGRFTISRDNAKNTVYLEMNSLKPEDTAVYYCAVRPRYYGTYRYYYWGQGTQVTVSS | high polyreactivity
QVQLLESGGGLVQAGGSLRLSCAASGLTIKQYAMGWYRQAPGKESELVAAISKSGGRTYYADSVKGRFTISRDNAKNTVYLQMNSLKPEDTAVYYCNARAGQRQGWEYDYWGQGTQVTVSS | high polyreactivity
QVQLLESGGGLVQAGGSLRLSCAASGRIFNPYAMGWFRQARGKERALVAASSSCGDRTFYADSVKGRFTISRDNAKNTVYLQMNSRKPEDTAVYFCNTVVYTRFRPWRYGYCGQGTQVTVSS | high polyreactivity
QVQLLESGGGLVQAGGSLRLSCAASGRIFPYNAMGWYRQAPGKERELVAAISRSGGRTYYADSVKGRFTISRDNAKNTVYLQRNSLKPEDTAVYYCAAKYQAGENYWGQGTQVTVSS | high polyreactivity
QVQLLESGGGLVQAGGSLRLSCAASGRIFSFYTMGWYRQAPGKERELVAAITWRGGSTYYADSVKGRFTISRDNAKNTVYLQMNSLKPEDTAVYYCAAEVYGAVYDYWGQGTQVTVSS | low polyreactivity
QVQLLESGGGLVQAGGSLRLSCAASGRIFSRYAMGWYRQAPGKERELVASISWSGDGTYYADSVKGRFTISRDNAKNTVYLQMNSLKPEDTAVYYCAAAPWDAPWSGYEYWGQGTEVTVSS | high polyreactivity
QVQLLESGGGLVQAGGSLRLSCAASGRIFVRNAMGWYRQAPGKERELVAAITSSGGRTYYADSVKGRFTISRDNAKNTVYLQMNSLKPEDTAVYYCNADDFGYASYEYWGQGSQVTVSS | low polyreactivity
QVQLLESGGGLVQAGGSLRLSCAASGRIIPYYAMGWYRQAPGKERELVATITSGGSTYYADSVKGRFTISRDNAKNTVYLQRNSLKPEDTAVYYCAARYPSIYYYRYDYWGQGTHVTVSS | high polyreactivity
QVQLLESGGGLVQAGGSLRLSCAASGRIYLYAMGWYRQTPGKERELVAAISYSGGSTYYADSVKGRFTISRDNAKNTVYLQMNSLKPEDTAVYYCAAEAGSYWRWFWYDSWGQGTQVTVSS | high polyreactivity
QVQLLESGGGLVQAGGSLRLSCAASGRTFEKNAMGWYRQAPGNERELVASITSVGSTDYADSVKGSFTISRDNAKNTVYLQMNSLKPEDNAVYYCAKTLGSQNYDFDYWGQGTQVNVSS | low polyreactivity
QVQLLESGGGLVQAGGSLRLSCAASGRTFHFNAMGWYRKAPWKERELVAAITNSGGRTSYADSVKGRFTISRDNAKNTVYLQMNSLKPEDTAVYYCNVEVTYSSGKYDYWGQGTQVTVSS | low polyreactivity
QVQLLESGGGLVQAGGSLRLSCAASGRTFRSYAMGWYRQAPGKERELVAAISRSDGSTYYAESVKVRFTISRDNAKNTVYLQMNSLKPEDTAVYYCARSLYASSYLMYYWGQGTQVTVSS | high polyreactivity
QVQLLESGGGLVQAGGSLRLSCAASGRTFRYNAMGWYRQAPGKERELVAAITGSGGSTYYADSVKGRFTISRDNAKNTVYLQMNSLKPEDTAVYYCARAYSYRLYPYGSWGQGTQVTVSS | high polyreactivity
QVQLLESGGGLVQAGGSLRLSCAASGRTFYGYTMGWYRQAPGKEWELVAAISTGGGSTYYADSVKGRFTISRDTAKNTVYLQMNSMKREDTAVYYCAARGGSYSFRRYNFWGQGTQVTVSS | high polyreactivity
QVQLLESGGGLVQAGGSLRLSCAASGRTIRNNTMGWYRQAPGKERELVARITWSGGSTYYADSVKGRFTISRDNAKNNVYLKMNRLKQEDTAVYYCAAVPILVYLWFQSYTGDYDYWGQGTQVTVSS | low polyreactivity
QVQLLESGGGLVQAGGSLRLSCAASGSIFRGYAMGWYRKAPGKERELVAAINWSGSSTYYADSVKGRFTISRDNAKKTVYLQMNSLKPEDTAVYYCARVYYNRNLGGDYWGQGTQVTVSS | low polyreactivity
QVQLLESGGGLVQAGGSLRLSCAASGSIFSYNAMGWYRQAPGTERELVAAITSGDSTNYADSVKGRFTISRDNAKNTVYLQMNSLKPEDTAVYYCAADPVLPAFGYVGTSLGYYWGQGTQVTVSS | low polyreactivity
QVQLLESGGGLVQAGGSLRLSCAASGSNFYVNAMGWYRQAPGKERELVAAITSTGTTHYADSVKGRFTISRDNAKNTDYLHMNSLKPEDTAVYYCAAYSRYQSRRYYYWGQGTQVTVSS | high polyreactivity
QVQLLESGGGLVQAGGSLRLSCAASGSSFSHYTMGWYRQAPGKERELVAAINYGGASTYYADSVKGRFTISRDNAKNTVYLQMNSLKPEYTAVYYCAAANRPSEQDNYWGQGTQVTVSS | low polyreactivity

Sequence | polyreactivity (PSR sort gate)
QVQLLESGGGLVQAGGSLRLSCAASGSTFGVYAMGWYRQAPGKEREFVAAINARGTRTRYADSVKGRFTISRDNAKNTVYLQMNSLKPDDTAVYYCAAVWYGYYSIDTYGYWGQGTQVTVSS | high polyreactivity
QVQLLESGGGLVQAGGSLRLSCAASGSTFNVYAMGWYRQAPGKERELVAAINWSGGNTYYADSVKGRFTISRDNAKNTVYLQMNSLNPEDTAVDYCNADGFVGTPSVDYDYWGQGTQVTVSS | low polyreactivity
QVQLLESGGGLVQAGGSLRLSCAASGSTFQRYVMGWYRQAPGKERELVATITKSGGSTYYADSVKGRFTISRDIAKNTVYLQMNSLKPEDTAVYNCAAYLQWAFRGYYHWGQGTQVTVTS | high polyreactivity
QVQLLESGGGLVQAGGSLRLSCAASGSTFYFNAMGWYSQAPGKDSELVAGIRYSGSSTYYADSVKGRFTISRDNAKNTVYLQMHSLKPEDTAVYYCAASLWRWRFSRFGYWGQGTQVTVSS | high polyreactivity
QVQLLESGGGLVQAGGSLRLSCAASGSTFYINTMGWSRQAPGKERELVAAISWTGGRTYYADSVKGRFTISRDNAKNTVYLQMHSLKPEDTAVYYCAAYYNIPDRRRVGYDYWGQGTQVTVSS | high polyreactivity
QVQLLESGGGLVQAGGSLRLSCAASGYFFSDNTMGWYRQAPGKERELVAAITSGGSSYYADSVKGGFTISRDIAKNTVYLQMNSLKQEDTAVYYCDKDVLHVRRVSGQYYSVDYWGQGTQVTVSS | low polyreactivity
QVQLLESGGGLVQAGGSLRLSCAASGYNFGNYAMGWYRQAPGKERELVAAITSRGGRTYYADSVKGRFTISRDNAKNSFYLQMNSLIPVDTGVYYCYRAVTTKDGYWGQCTQVTVSS | high polyreactivity
QVQLLESGGGLVQAGGSLRLSCAATGRIFFYGMGWYRQAPGNETELVATITSVSNTYYADSVKGRFTISRDNAKNTGYLLMNSLKPEDTAVYYCAARPDRYRYRYGYWGQGTQVTVSS | high polyreactivity
QVQLLESGGGLVQAGGSLRLSCAPSGFTFLYYAMGWYIQAPGKERELVAVISRSGGRTYYADSVKGRFTISRDNAKNTVYLLMNSLKPEDTAVYYCAAALGVALNDYWGQGTQVNVSS | high polyreactivity
QVQLLESGGGLVQAGGSLRLSCAPSGRIFGYYAMGWYRQEPGKERELVAAISRGGSTNYADSVKGRFTISRDNAKNTVYLQMNSLKPEDTAVYYCAALVYRSYNNYYWGQGTQVTVSS | high polyreactivity
QVQLLESGGGLVQAGGSLRLSSAASGRIFLGYTMGWYRPAPGNERELVAAIRLSGGTTRYADSVKGRFTISRDNAKNTVYLQMYSLKPEDTAVYYCAARDRRTYSLYYWGQGSQVTVSS | high polyreactivity
QVQLLESGGGLVQAGRSLRLSCAASGRIFVYYAMGWYRQAPGQERELVATISWSGGSTYYADSVKGRFTISRDNAKNTVYLELNSLKPEDTAVYYCAAEKYISYYSVKRQENGYWGQGSQVTVSS | low polyreactivity
QVQLLESGVGLVQAGGILRLSCAASGITFSRYTMGWYRQAPGKERELVAANSSAGNTYYADSVNGRFTISRDNAKNTVYLQMNSLKPEDTAVYYCAREYTYYPRWVGYDAYGEDYWGQGTQVTVSS | low polyreactivity
QVQLLESRGGLVQAGGSLRLSCAASGSNFDVYDMGWYRQAPGKERELVACISWDGDRTYYADSVKGRFTISRDNAKNTVYLQMKSLKPEDTAVYYCAVDSASDTIYDYWGQGTQVTVSS | low polyreactivity
QVQLLESVGGLDQAGGSLRLSCAASGRTFKVYAMGWYRKATVKERELVAAISFSGGTTYYADSVKGRFTISRDNAKNTVYLQMNSLKQEDTAVSYCAAKRYGEYRARGYYYWGQGTQVTVSS | high polyreactivity
QVQLLESVGGLVQAGGSLRLSCDASGYTYCGYAMGSYRQAPGKERELVAAISRSGGSTYYADTVKGRFTISRDHAKNTVYLQMNSLKPEDTAVYYCNARTEDYDGANNYWGHGTQVTVSS | low polyreactivity
QVQLLETGGGLVQAGGSLRLSCAPSGFTIYRYAMGWYKQAPGKERELVAAISSGTSTYYADTVKGRFTISRDNAKKTVYLQINSLKPEVTEVYYCAVAGVSLYGTLYDYWGLGTQVTVSS | high polyreactivity
QVQLLETGGGLVQAGGSLRLSCAPSGRIFRQYVMGWSRQAPGKERELVAAISRSGGTTYYADSVKGRFTISRDNAKNTVYLQMNILKPEDTAVYYCAASFRGQIVGYWGQGTQVTLSS | high polyreactivity
QVQLQDSGGGLVQAGGSLRLSCAASGTIIWYSDLGWYRQAPGKERKFVAGIGFGSNSNFADSVRGRFTISRDNAKITVYLQMNSLKPEDTAVYYCEAVWFDYSTHRYWGQGTQVTVCS | high polyreactivity
QVQLQDSGGGLVQAGGSLRQRCAASGYISSLAAMGWYRQAPGKERDLVAGNDLGTITNYADSVKGSLTISRDNAKNTVYLQMNSLIPEDTAVYYCAPTWYYHYNDWKHWYEYGYWGQGTQVTVSS | low polyreactivity
